Here are results for seven molecules from patent US20210107981A1 (SUTRO BIOPHARMA, published 2021).

What is called Kd is the free concentration of one partner at which half of the binding sites on the other are occupied at equilibrium, for simple one-to-one binding. Lower therefore signals higher affinity. Broadly, the koff is a measure of how fast the partners let go of each other. Higher therefore signals fast dissociation. As usually defined, the kon is the second-order rate constant of association. In general, IC50 refers to the midpoint of a concentration-inhibition curve. The EC50 is the concentration needed to bring the measured effect to its halfway point.

Experiment [1] has as its target T1, Human PD-1 (ACROBiosystems, Inc., Catalog No. PD1-H5221) (human, UniProt Q15116 25-167).
T1 construct: Bought recombinant protein; also called huPD1-His; PD-1-his; not shown: His tag of the bought protein (huPD1-His)
Kind of experiment: SPR (Biacore), IgG as ligand, PD-1-his as sample. In general terms: SPR reads the build-up and loss of mass on a sensor chip optically.

For experiment [2], the target named is T2, human PD-1 expressed on the cell surface (CHO-PD1 cells) (human, UniProt Q15116 25-288).
T2 construct: Also used here as the target for native PD-1 on human PBMC / T cells in the functional (IFN-g) assays; also called CHO cell line overexpressing human PD-1; Cell-Surface Human PD-1 antigen
T2 sequence (Q15116 25-288 limits assumed): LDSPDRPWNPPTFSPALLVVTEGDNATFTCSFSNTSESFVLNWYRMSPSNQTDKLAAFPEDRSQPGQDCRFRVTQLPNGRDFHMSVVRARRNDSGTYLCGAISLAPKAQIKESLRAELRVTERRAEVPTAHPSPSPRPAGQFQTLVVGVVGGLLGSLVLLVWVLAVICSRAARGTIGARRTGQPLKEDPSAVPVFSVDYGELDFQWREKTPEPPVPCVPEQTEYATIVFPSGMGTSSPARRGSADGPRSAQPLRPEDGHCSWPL
Kind of experiment: cell-based FACS competition on CHO-PD1 cells; competitor rhPDL2-Fc. The procedure:
(§1) CHO-PD1 cells were cultured in RPMI with 10% FCS Pen/Strep and Gln and split every 3-4 days at 10⁵ cells/ml. Cells were washed 2× with FACS buffer (PBS w/2% FCS), […] at a final concentration of 1×10⁶ cells/ml and seeded at […] per well on 96 well polypropylene plates. Plates were spun at 1500 rpm for 5 minutes and cell pellets were suspended in 50 μL FACS buffer containing 8 point 1:3 dilutions (2× concentrated) of anti-PD-1 antibody variants, starting from high concentration of −200 nM. […] Cell were then incubated on ice for 1 hr, washed with FACS buffer and incubated for 1 hr on ice with 50 μl FACS buffer containing 2.5 μg/ml R-phycoerythrin-conjugated anti-human IgG (Jackson ImmunoResearch). Cells were then washed 2× with FACS buffer and fixed for 10 minutes in 200 μl PBS with 2% PFA prior to acquisition. Samples were acquired using a Becton Dickinson LSRII FACS.

Experiment [3] has as its target T1, Human PD-1 (ACROBiosystems, Inc., …). Kind of experiment: competition ELISA on coated PD-1; competitor PD-L1-Fc (ACROBiosystems). The method, then:
PD-1 (ACROBiosystems, Inc.) was adsorbed on 384-well white Maxisorp® plates (Nunc) at 2 μg/mL in sodium bicarbonate buffer (pH 8.9) and incubated at 30° C. for 1 hour or overnight at 4° C. The plate was washed 3 times with PBS pH 7.4 with 0.05% Tween20 and blocked with 2% bovine serum albumin (BSA) in PBS pH 7.4+0.1% Tween20 for 1 hour at 30° C.
After a 1 hour incubation at 30° C., the plate was washed and incubated with HRP-conjugated anti-mouse Fc (Jackson Laboratories), followed by detection with SuperSignal™ Pico Chemiluminescent Substrate (Thermo Pierce). Luminescence was detected on a SpectraMax® M5 plate reader (Molecular Devices).
In general terms: An ELISA detects its analyte on a solid surface through an enzyme-linked reagent.

Experiment [4] has as its target T3, cynomolgus PD-1 (ACROBiosystems, Inc., Catalog No. PD1-H5254) (cynomolgus, UniProt B0LAJ3 25-167).
T3 construct: also called cyno PD-1
Kind of experiment: SPR (Biacore).

For experiment [5], the target named is T1, Human PD-1 (ACROBiosystems, Inc., …). Kind of experiment: SPR (Biacore).
Experiment [6] has the same target. Kind of experiment: ELISA, binding of human PD-1 (coated).
Experiment [7] addresses T2, human PD-1 expressed on the cell …. Kind of experiment: FACS cell binding, CHO cell line overexpressing human PD-1. The method, then: Antibodies with expression levels >250 nM and mouse IgGs from hybridomas were tested in a fluorescence-activated cell sorting (FACS) cell-binding assay. Chinese Hamster Ovary (or CHO) Cells stably expressing the human target molecule PD-1 on the cell surface (CHO-PD1) were used to screen for binding. Parental CHO cells were used as a negative control to determine background-binding levels. Parental CHO cells and CHO-PD1 cells were cultured in RPMI w/10% FCS penicillin/streptomycin (Pen/Strep) and glutamine (or Gln) and split every 3-4 days at 10⁵ cells/mL.
(§2) A mix of parental CHO cells and CHO-PD1 cells was prepared as follows: Parental CHO cells were washed 2× in PBS then incubated in PBS containing 1 μM CellTrace™ Oregon Green488® (Life Technologies) at 37° C. for 30 minutes. Cells were then washed 2× with RPMI w/10% fetal calf serum (FCS), washed 2× with FACS buffer (PBS w/2% FCS), suspended thoroughly in ice-cold FACS buffer at a final concentration of 2×10⁶ cells/mL and kept on ice. CHO-PD1 cells were similarly washed with FACS buffer and kept on ice at 2×10⁶ cells/mL. Parental CHO cells and CHO-PD1 cells were then mixed to obtain a 1:1 cell suspension and seeded at 100 μL per well on 96 well polypropylene plates. Plates were spun at 1500 rpm for 5 minutes and cell pellets were suspended in 50 μL FACS buffer containing 6-12 point dilutions of anti-PD-1 variants starting from concentrations of −100-200 nM antibody, dispensed using BioMek FX (Beckman Coulter). Cells were then incubated on ice for 1 hr, washed with FACS buffer and incubated for 1 hr on ice with 50 μL FACS buffer containing 2.5 μg/ml R-phycoerythrin-conjugated goat anti-Human IgG (Jackson ImmunoResearch) or AF647-conjugated goat anti-mouse IgG (Life Technologies) dispensed using BioMek FX (Beckman Coulter). Cells were then washed 2× with FACS buffer and fixed for 10 minutes in 200 μL PBS with 2% paraformaldehyde (PFA) prior to fluorescence detection. Samples were acquired using a Becton Dickinson LSRII FACS. Mean Fluorescence Intensity of PD-1 antibody binding was analyzed using FlowJo® software (Tree Star, Inc.).

For experiment [8] the target is unchanged. Kind of experiment: cell-based FACS competition on CHO-PD1 cells; competitor rhPDL1-Fc. The procedure:
as §1

Experiment [9] concerns the target T1, Human PD-1 (ACROBiosystems, Inc., …). Kind of experiment: SPR (Biacore), IgG as ligand, PD-1-his as sample. The source holds these as a separate data set.
Experiment [10] addresses T2, human PD-1 expressed on the cell …. Kind of experiment: FACS cell binding on CHO cells expressing human PD-1. The method, then:
as §2
The affinity of the IgGs for cell-surface expressed human PD-1 were measured according to Example 6, above.

The target of experiment [11] is T4, cynomolgus PD-1 expressed on CHO cells (cynomolgus, UniProt B0LAJ3 25-288).
T4 construct: also called Cell-Surface Cynomolgus PD-1 antigen
T4 sequence (B0LAJ3 entry or part of it limits assumed, form in doubt): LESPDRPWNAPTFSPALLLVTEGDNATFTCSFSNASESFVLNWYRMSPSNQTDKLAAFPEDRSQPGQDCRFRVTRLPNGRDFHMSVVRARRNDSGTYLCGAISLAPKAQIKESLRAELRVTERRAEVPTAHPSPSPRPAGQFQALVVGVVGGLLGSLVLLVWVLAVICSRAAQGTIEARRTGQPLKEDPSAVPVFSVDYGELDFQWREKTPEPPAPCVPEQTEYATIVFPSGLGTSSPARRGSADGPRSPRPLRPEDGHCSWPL
Kind of experiment: FACS cell binding on CHO cells expressing cynomolgus PD-1. The procedure:
as §2
The affinity of the IgGs for cell-surface expressed cynomolgus PD-1 were measured according to Example 6, above.

T3 sequence (B0LAJ3 entry or part of it limits assumed, form in doubt): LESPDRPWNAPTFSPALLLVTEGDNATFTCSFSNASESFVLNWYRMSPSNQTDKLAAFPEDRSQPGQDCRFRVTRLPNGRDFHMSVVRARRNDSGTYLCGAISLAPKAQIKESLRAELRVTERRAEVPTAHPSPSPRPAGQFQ
T1 sequence (Q15116 25-167 limits assumed): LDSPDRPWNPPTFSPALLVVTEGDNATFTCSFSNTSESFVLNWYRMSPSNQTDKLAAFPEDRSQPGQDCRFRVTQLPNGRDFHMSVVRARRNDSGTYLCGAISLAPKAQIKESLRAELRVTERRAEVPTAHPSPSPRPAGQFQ

B1: h1E9-5 IgG (antibody)
heavy: not shown
light: MEIVLTQSPATLSLSPGERATLSCRASESVDNSGISFMSWYQQKPGQAPRLLIYTASNQGSGIPARFSGSGSGTDFTLTISSLEPEDFAVYYCQQSKEVPWTFGQGTKVEIKRTVAAPSVFIFPPSDEQLKSGTASVVCLLNNFYPREAKVQWKVDNALQSGNSQESVTEQDSKDSTYSLSSTLTLSKADYEKHKVYACEVTHQGLSSPVTKSFNRGEC
notes: Human IgG1; heavy chain with C-terminal FlagHis tag; made by cell-free expression; also called h1E9-5 human IgG1
B1: in [1], binding was characterised by a dissociation constant (Kd) of 19.4 nM, the koff turned out to be 0.000471 s⁻¹ and the on-rate (kon) came to 24300 M⁻¹ s⁻¹.

B2: 1E9 murine hybridoma IgG (antibody, V domains shown)
VH: EVKLVESGGGLVSPGGSLKLSCAASGFTFSTFGMSWVRQTPEKRLEWVATISGGGSDTYYPDSVQGRFIISRYNAKNNLYLQMNSLRPEDTALYYCARQGYDVYSWFAYWGQGTLVTVSA
VL: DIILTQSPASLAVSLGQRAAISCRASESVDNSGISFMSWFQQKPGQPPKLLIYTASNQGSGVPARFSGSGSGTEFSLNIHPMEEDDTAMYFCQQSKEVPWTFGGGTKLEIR
notes: Mouse IgG from hybridoma; also called m1E9
As to B2, the IC50 in experiment [2] was 0.58 nM; in [3] it was 0.89 nM; in experiment [8], 5.86 nM. The dissociation constant Kd in experiment [4] was determined as 2.54 nM; in experiment [5] it was 9.9 nM; in experiment [7], 2.9 nM. Moreover, in [6], the concentration for a half-maximal effect (EC50) was 0.33 nM.

B3: 4B10 murine hybridoma IgG (antibody, V domains shown)
VH: EVKLVESGGGLVKPGGSLKLSCAASGFTFSTYGMSWVRQTPEKRLQWVATISGGGSNTYYSDSVKGRFTISRDNAKNNLYLQMSSLRSEDTALYYCARQRDSAWFASWGQGTLVTVSA
VL: not shown
notes: Mouse IgG from hybridoma; also called m4B10
Take B3: the concentration for half-maximal inhibition (IC50) is 0.01 nM in experiment [2], 1.43 nM in experiment [3] and 1.99 nM in experiment [8]. For the same molecule, the results for the Kd in experiment [4], in [5] and in experiment [7] were 0.561 nM, 0.913 nM and 1.39 nM, respectively. Besides, the half-maximal effective concentration (EC50) in experiment [6] was found to be 0.47 nM.

B4: h1E9-HC2 × h1E9-LC4 IgG (antibody)
heavy: not shown
light: MDIVLTQSPDSLAVSLGERATINCRASESVDNSGISFMSWYQQKPGQPPKLLIYTASNQGSGVPDRFSGSGSGTDFTLTISSLQAEDVAVYYCQQSKEVPWTFGQGTKVEIKRTVAAPSVFIFPPSDEQLKSGTASVVCLLNNFYPREAKVQWKVDNALQSGNSQESVTEQDSKDSTYSLSSTLTLSKADYEKHKVYACEVTHQGLSSPVTKSFNRGEC
notes: Humanized IgG; heavy chain with C-terminal FlagHis tag
Turning to B4, the figures for the Kd in experiment [9], in experiment [10] and in experiment [11] were 4.96 nM, 4 nM and 6 nM, respectively.

B5: 1B10 murine hybridoma IgG (antibody, V domains shown)
VH: DVQLQESGPGLVKPSQSLSLTCTVTGHSITSDYAWNWIRQFPGNKLEWMGYISYSGRTSYNPSLTSRISITRDTSKNQFFLQLNSVTTEDTATYYCARGYALDYWGQGTSVTVSS
VL: QIVLSQSPAILSASPGEKVTMTCRTSSSVNYMHWFQQKPGSSPKPWIYATSKLASGVPARFSGSGSGTSYSLTISRVEAEDAATYFCQQWISDPWTFGGGTKLEIK
notes: Mouse IgG from hybridoma; also called m1B10
For B5, the IC50 in experiment [2] amounted to 0.56 nM; in [3], 9.47 nM; in experiment [8] it was 5.96 nM. Also, the dissociation constant (Kd) turned out to be 2.56 nM in experiment [4], 10.4 nM in experiment [5] and 3.2 nM in experiment [7]. Moreover, in experiment [6], the half-maximal effective concentration (EC50) is 1.71 nM.

B6: 10B4 murine hybridoma IgG (antibody, V domains shown)
VH: QVQLQQSGAELMKPGASVKMSCKTTGYIFSSYWIGWVKQRPGHGLEWIGKIFPGSGSADYNENFKGKATFTVDTSSNTAYMQLSSLTSEDSAVYYCARGYGNYLYFDVWGAGTTVTVSS
VL: NIVMTQTPKFLLVSAGDRITITCKASQSVSDDVAWYQQKPGQSPKLLISYAFKRYIGVPDRFTGSGYGTDFTFTISTVQAEDLAVYFCQQNYNSPYTFGGGTKLELKR
notes: Mouse IgG from hybridoma; also called m10B4
For B6, the figures for the half-inhibitory concentration (IC50) in [2], in experiment [3] and in experiment [8] were 0.18 nM, 1.32 nM and 2.53 nM, respectively. Also, the Kd in experiment [4] was 0.195 nM; in experiment [5], 0.252 nM; in experiment [7] it was 1.34 nM. For the same molecule, the EC50 in experiment [6] was 0.59 nM.

B7: h1E9-4 IgG (antibody)
heavy: not shown
light: MDIQLTQSPSFLSASVGDRVTITCRASESVDNSGISFMSWYQQKPGKAPKLLIYTASNQGSGVPSRFSGSGSGTEFTLTISSLQPEDFATYYCQQSKEVPWTFGQGTKVEIKRTVAAPSVFIFPPSDEQLKSGTASVVCLLNNFYPREAKVQWKVDNALQSGNSQESVTEQDSKDSTYSLSSTLTLSKADYEKHKVYACEVTHQGLSSPVTKSFNRGEC
notes: Human IgG1; heavy chain with C-terminal FlagHis tag; made by cell-free expression; also called h1E9-4 human IgG1
In [1], B7 returned a Kd of 12.4 nM, a dissociation rate constant (koff) of 0.000442 s⁻¹ and a kon of 35600 M⁻¹ s⁻¹.
